Experiments:
[1] = biological target: GLP-1R on CHO cells (CHO/GLP-1R); assay: cell-based or functional assay
[2] = biological target: T1, Chinese hamster ovary (CHO) cell-derived soluble recombinant human G-CSF receptor (R&D Systems, 381-050/CF) (human, UniProt Q99062 25-627); assay: SPR (BIAcore 3000), receptor amine-coupled to CM5 chip, analyte 6.25-100 nmol/L, 25 C, 1:1 Langmuir fit
T1 construct: extracellular domain; Bought and amine-coupled to a CM5 chip; also called soluble human G-CSF receptor
T1 sequence (looked up): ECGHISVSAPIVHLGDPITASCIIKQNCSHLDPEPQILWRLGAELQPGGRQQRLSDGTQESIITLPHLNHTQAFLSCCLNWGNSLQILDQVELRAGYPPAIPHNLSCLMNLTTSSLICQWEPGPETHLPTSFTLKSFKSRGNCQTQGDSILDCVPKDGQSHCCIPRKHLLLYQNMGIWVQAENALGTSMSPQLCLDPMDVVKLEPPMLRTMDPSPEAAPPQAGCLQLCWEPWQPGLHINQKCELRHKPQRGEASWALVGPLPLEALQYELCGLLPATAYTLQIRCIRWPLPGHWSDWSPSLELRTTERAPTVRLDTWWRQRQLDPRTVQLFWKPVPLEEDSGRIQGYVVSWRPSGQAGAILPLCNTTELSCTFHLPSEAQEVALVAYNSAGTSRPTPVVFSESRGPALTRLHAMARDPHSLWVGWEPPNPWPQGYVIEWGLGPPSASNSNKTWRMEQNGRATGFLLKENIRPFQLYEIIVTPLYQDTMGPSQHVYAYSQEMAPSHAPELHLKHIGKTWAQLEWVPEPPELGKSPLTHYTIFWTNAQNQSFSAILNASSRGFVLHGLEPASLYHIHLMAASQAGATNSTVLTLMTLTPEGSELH
From the text: Surface plasmon resonance technology and the BIAcore 3000 biosensor (GE healthcare) were employed to measure in vitro binding affinity to the G-CSF receptor. Amine-coupling chemistry was used to immobilize the G-CSF receptor on CM5 biosensor chip. […] The CM5 sensor chip surface was activated by injecting a 1:1 mixture of 0.1 mol/L N-hydroxysuccinimide (GE healthcare) and 0.1 mol/L 3-(N,N-dimethylamino)propyl-N-ethylcarbodiamide (GE Healthcare). […] The chip surface was then blocked with ethanolamine/HCl (GE Healthcare), pH 8.5, and washed with a regeneration solution (50 mmol/L NaCl; 5 mmol/L NaOH). […] Binding affinity was calculated using the 1:1 Langmuir fitting model for each test material.

[3] = biological target: T2, Fc fragment of eflapegrastim (human, UniProt P01861 107-325 = IgG part, aglycosylated (manufactured from recombinant E. coli cells)); assay: ELISA with GST-FcγRIIB, anti-GST detection
T2 construct: Unconjugated Fc carrier tested alongside eflapegrastim; also called aglycosylated human IgG4 Fc fragment; immunoglobulin Fc region (IgG4)
T2 sequence (P01861 other isoform, or with tags, fused parts or gaps limits assumed): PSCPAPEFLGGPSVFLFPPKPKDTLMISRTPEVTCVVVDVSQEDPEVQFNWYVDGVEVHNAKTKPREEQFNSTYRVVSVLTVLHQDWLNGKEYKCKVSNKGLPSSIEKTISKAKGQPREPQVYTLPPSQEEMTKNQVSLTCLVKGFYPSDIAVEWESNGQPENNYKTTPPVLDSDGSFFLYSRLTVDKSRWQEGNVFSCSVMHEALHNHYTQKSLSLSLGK
Method: For C1q, FcγRIIB, FcγRIIIA, and FcRn binding assays, serial dilutions of the test materials were added to 96-well microplates coated with C1q, or GST fusion proteins of FcγRIIB or FcγRIIIA, or FcRn αβ2. After incubation and washing, HRP-conjugated anti-C1q antibody was added for C1q binding assay, and rabbit-anti-GST antibody and HRP-conjugated anti-rabbit IgG antibody were sequentially added for FcγRIIB, FcγRIIIA, and FcRn binding assays. The absorbance was measured at 450 nm as described above for FcγRI binding assay.

Molecule: CA Exendin (lysine)-PEG-(N-terminus) Fc - Experimental group (Fc fusion)
- potency relative to the isomer linked at another position of Fc [1]: 6 times

Molecule: CA Exendin (lysine)-PEG-(lysine) Fc (Fc fusion)
- % vs. Experimental group [1]: 16.1%
- EC50 (ng/ml), in vitro activity [1]: 590 ng/mL

B1: Pegfilgrastim (Neulasta) (ligand, UniProt P09919-2 31-204, looked up)
chain: TPLGPASSLPQSFLLKCLEQVRKIQGDGAALQEKLCATYKLCHPEELVLLGHSLGIPWAPLSSCPSQALQLAGCLSQLHSGLFLYQGLLQALEGISPELGPTLDTLQLDVADFATTIWQQMEELGMAPALQPTQGAMPAFASAFQRRAGGVLVASHLQSFLEVSYRVLRHLAQP
modifications: 20 kDa polyethylene glycol on the N-terminal methionine residue
notes: Commercial product
- Kd [2]: 2.9 nM

B2: GST fusion protein of FcγRIIB (receptor, UniProt P31994 43-217, looked up)
chain: TPAAPPKAVLKLEPQWINVLQEDSVTLTCRGTHSPESDSIQWFHNGNLIPTHTQPSYRFKANNNDSGEYTCQTGQTSLSDPVHLTVLSEWLVLQTPHLEFQEGETIVLRCHSWKDKPLVKVTFFQNGKSKKFSRSDPNFSIPQANHSHSGDYHCTGNIGYTLYSSKPVTITVQAP
notes: not shown: GST
- binding result [3]: no binding

From US20210008166A1 (SPECTRUM PHARMACEUTICALS, published 2021)
